One protein from US7015022B2, “Mammalian catalase-dependent oxidation processes and methods for stimulating oxidative activities” (University of Medicine & Dentistry of New Jersey, priority 2002, dated 2006) can be followed below.

Substrate in the data set: CC(=O)N1c2ccc(O)cc2Oc2cc(O)ccc21
Put plainly: Catalase-dependent oxidation of AMPLEX-RED to resorufin in the absence of hydrogen peroxide (Lineweaver-Burke enzyme kinetics). The data set is classed as biochemical, bovine. To be noted: other: Lineweaver-Burke analysis, catalase 1 mg/ml, 50 mM phosphate buffer pH 7.4, room temperature, no hydrogen peroxide.

Experimental: Reactions were carried out in buffer consisting of 50 mM phosphate buffer, pH 7.4 and 1.0 mg/ml of the catalase at room temperature (22° C.) in a reaction volume of 0.1 ml. […] Standard reaction mixtures contain 20 nmoles of the substrate. Detection of the fluorescent product resorufin was measured using an HTS 7000 Plus Bio Assay Reader (Perkin Elmer, Beaconsfield, Buckinghamsire, UK) using a 540 nm excitation filter and a 595 nm emission filter.

B1: mammalian catalase (Bos taurus) (protein)
chain: ADNRDPASDQMKHWKEQRAAQKPDVLTTGGGNPVGDKLNSLTVGPRGPLLVQDVVFTDEMAHFDRERIPERVVHAKGAGAFGYFEVTHDITRYSKAKVFEHIGKRTPIAVRFSTVAGESGSADTVRDPRGFAVKFYTEDGNWDLVGNNTPIFFIRDALLFPSFIHSQKRNPQTHLKDPDMVWDFWSLRPESLHQVSFLFSDRGIPDGHRHMNGYGSHTFKLVNANGEAVYCKFHYKTDQGIKNLSVEDAARLAHEDPDYGLRDLFNAIATGNYPSWTLYIQVMTFSEAEIFPFNPFDLTKVWPHGDYPLIPVGKLVLNRNPVNYFAEVEQLAFDPSNMPPGIEPSPDKMLQGRLFAYPDTHRHRLGPNYLQIPVNCPYRARVANYQRDGPMCMMDNQGGAPNYYPNSFSAPEHQPSALEHRTHFSGDVQRFNSANDDNVTQVRTFYLKVLNEEQRKRLCENIAGHLKDAQLFIQKKAVKNFSDVHPEYGSRIQALLDKYNEEKPKNAVHTYVQHGSHLSAREKANL
notes: purified catalases obtained from a variety of sources including enzyme from mouse and bovine liver; purchased Sigma Chemical Co., St. Louis, Mo; host or cells: liver tissue (mouse and bovine named)
For the protein B1, the Km was found to be 244 µM and the Vmax turned out to be 4.74e-05 M/s.

By Km is commonly meant the concentration of substrate that gives half-maximal velocity. By Vmax is commonly meant the rate approached at saturating substrate.
